From PMC3307134
Like-named read-outs stand apart in the source and are kept apart here. Values belong to the substance of their own block, whether it stands above or below them.

Experiments:
[1] = target: recombinant dimeric (β15-66)2 fragment; test: ELISA
[2] = target: fibrin (β15-66)2 15-66 (Homo sapiens) (UniProt P02675); test: SPR; details: cited from earlier work
[3] = target: VE-cad(3)His fragment (human); test: SPR
[4] = target: VE-cad(1-5) fragment (human); test: SPR
[5] = target: VE-cad(3)His fragment (human); test: SPR; remark: listed apart in the source
[6] = target: VE-cad(1-5) fragment (human); test: SPR; remark: listed apart in the source
[7] = target: VE-cad(3)His fragment (human); test: SPR; remark: listed apart in the source

Chain of fibrin (β15-66)2 15-66 (Homo sapiens) (P02675 15-66): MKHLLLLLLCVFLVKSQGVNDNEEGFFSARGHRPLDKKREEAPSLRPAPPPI
Chain of VE-cadherin VE-cad(1-4)His EC1-4 (P33151 48-477): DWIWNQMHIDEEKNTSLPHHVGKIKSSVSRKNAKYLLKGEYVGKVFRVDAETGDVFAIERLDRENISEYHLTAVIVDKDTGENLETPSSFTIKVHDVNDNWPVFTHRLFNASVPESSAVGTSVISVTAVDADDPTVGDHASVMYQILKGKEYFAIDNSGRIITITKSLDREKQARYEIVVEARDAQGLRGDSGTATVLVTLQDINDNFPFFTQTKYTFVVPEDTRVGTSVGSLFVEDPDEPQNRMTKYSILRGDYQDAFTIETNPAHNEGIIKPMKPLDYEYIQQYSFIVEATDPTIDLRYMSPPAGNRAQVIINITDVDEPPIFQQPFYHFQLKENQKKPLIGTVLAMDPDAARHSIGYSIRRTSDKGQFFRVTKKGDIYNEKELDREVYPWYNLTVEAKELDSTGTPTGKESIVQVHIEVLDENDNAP

- Kd [1]: 32 nM
Substance: VE-cad(2-4) fragment (domain or fragment)

- Kd [1]: 27 nM
Substance: VE-cad(2-3) fragment (domain or fragment)

Substance: VE-cadherin VE-cad(1-4)His EC1-4 (from UniProt P33151)
- Kd [2]: 80 nM

- Kd [3]: 89 nM
- Kd [4]: 82 nM
- Kd [5]: 90 nM
- Kd [6]: 76.7 nM
- kon [6]: 678000 M⁻¹ s⁻¹
- Kd [7]: 91 nM
- koff [7]: 0.0172 s⁻¹
- kon [7]: 189000 M⁻¹ s⁻¹
Substance: recombinant dimeric (β15-66)2 fragment (domain or fragment)
